In US20050158838:
Residue numbers refer to the chain shown, from its start.

How the values were obtained:
[1] = biological target: T1, AVLSNVMFI (negative control test peptide)
T1 chain: AVLSNVMFI

GNYTDRRFI test peptide = biological target: T2, GNYTDRRFI test peptide
T2 chain: GNYTDRRFI

[2] = biological target: T3, phage isolate 5-A08 display polypeptide
T3 chain: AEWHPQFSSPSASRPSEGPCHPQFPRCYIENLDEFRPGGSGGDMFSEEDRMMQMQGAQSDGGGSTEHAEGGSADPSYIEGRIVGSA

[3] = biological target: T4, GDDDDKIYV (positive control test peptide)
T4 chain: GDDDDKIYV

[4] = biological target: T5, phage isolate 5-H11 display polypeptide ((Asp)4-Lys-containing recognition sequence)
T5 chain: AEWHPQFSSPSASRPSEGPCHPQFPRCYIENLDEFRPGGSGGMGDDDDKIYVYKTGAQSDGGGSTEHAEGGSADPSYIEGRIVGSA

GDDDDK-β naphthylamine = biological target: T6, GDDDDK-β naphthylamine
T6 chain: GDDDDK

[5] = biological target: T7, phage isolate 5-H04 display polypeptide
T7 chain: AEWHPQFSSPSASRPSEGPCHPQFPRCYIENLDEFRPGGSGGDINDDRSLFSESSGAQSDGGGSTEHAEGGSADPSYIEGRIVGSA

GNYTDRMFI test peptide = biological target: T8, GNYTDRMFI test peptide
T8 chain: GNYTDRMFI

[6] = biological target: T9, phage isolate 5-B05 display polypeptide
T9 chain: T7 chain with D43S, I44L, N45D, S49T, L50V, F51S, S52P, E53K, S54F, S55W

DINDDRSLF test peptide = biological target: T10, DINDDRSLF test peptide
T10 chain: DINDDRSLF

GNYTDRYFI test peptide = biological target: T11, GNYTDRYFI test peptide
T11 chain: GNYTDRYFI

NKAKDRMFI test peptide = biological target: T12, NKAKDRMFI test peptide
T12 chain: NKAKDRMFI

B1: recombinant light chain enterokinase (Novagen, Madison, Wis.) (protein)
chain: IVGGSDSREGAWPWVVALYFDDQQVCGASLVSRDWLVSAAHCVYGRNMEPSKWKAVLGLHMASNLTSPQIETRLIDQIVINPHYNKRRKNNDIAMMHLEMKVNYTDYIQPICLPEENQVFPPGRICSIAGWGALIYQGSTADVLQEADVPLLSNEKCQQQMPEYNITENMVCAGYEAGGVDSCQGDSGGPLMCQENNRWLLAGVTSFGYQCALPNRPGVYARVPRFTEWIQSFLH
Question: Which “cleavage by 20U recombinant light chain enterokinase, 36-48 hrs, HPLC” value (“cleavage … HPLC” below) [1] does the source give for B1 here?
Answer: Its value is “No cleavage occurred with the negative control peptide (SEQ ID NO:198)”.

Question: And the Cleavage Rate (GNYTDRRFI test peptide)?
Answer: Its Cleavage Rate is 0.18 nmol/min.

Question: And the “cleavage … HPLC” value (GNYTDRRFI test peptide)?
Answer: Its value is “all digestions were carried to completion (except for the negative control which was not cleaved at all)”.

Question: What about the rate relative to standard substrate (fold of standard substrate) (GNYTDRRFI test peptide) of the same protein?
Answer: Its rate relative to standard substrate (fold of standard substrate) is 0.4.

Question: What about the “enterokinase cleavage rate, phage ELISA (release of streptavidin-bound phage at 30 nM or 130 nM enterokinase)” value [2] of the same protein?
Answer: The value was “the cleavage rate for ... 5-H11 (SEQ ID NO:194) was slower than for at least three of the other isolates, i.e., 5-A08 (SEQ ID NO:137), 5-B05 (SEQ ID NO:145) and 5-H04 (SEQ ID NO:188)”.

Question: And the “cleavage … HPLC” value [3]?
Answer: Its value is “all digestions were carried to completion (except for the negative control which was not cleaved at all)”.

Question: And the rate relative to standard substrate (fold of standard substrate) [3]?
Answer: Its rate relative to standard substrate (fold of standard substrate) is 0.7.

Question: And the ratio (Va/Vb) against reference peptide GDDDDK-βNA, equal to the ratio of kcat/Km [3]?
Answer: Its ratio (Va/Vb) against reference peptide GDDDDK-βNA, equal to the ratio of kcat/Km is 1.

Question: What about the “enterokinase cleavage rate, phage ELISA (release of streptavidin-bound phage at 30 nM or 130 nM enterokinase)” value [4] of the same protein?
Answer: Its value is “the cleavage rate for the (Asp)4-Lys-containing recognition sequence 5-H11 (SEQ ID NO:194) was slower than for at least three of the other isolates”.

Question: And the rate relative to standard substrate (fold of standard substrate) (GDDDDK-β naphthylamine)?
Answer: The rate relative to standard substrate (fold of standard substrate) was 1.

Question: And the “enterokinase cleavage rate, phage ELISA (release of streptavidin-bound phage at 30 nM or 130 nM enterokinase)” value [5]?
Answer: The value was “isolate 5-H04 (SEQ ID NO:188) shown in Table 5 was the most readily cut”.

Question: And the Cleavage Rate (GNYTDRMFI test peptide)?
Answer: The Cleavage Rate was 0.81 nmol/min.

Question: And the “cleavage … HPLC” value (GNYTDRMFI test peptide)?
Answer: The value was “all digestions were carried to completion (except for the negative control which was not cleaved at all)”.

Question: What about the rate relative to standard substrate (fold of standard substrate) (GNYTDRMFI test peptide) of the same protein?
Answer: Its rate relative to standard substrate (fold of standard substrate) is 1.8.

Question: And the ratio (Va/Vb) against reference peptide GDDDDK-βNA, equal to the ratio of kcat/Km (GNYTDRMFI test peptide)?
Answer: Its ratio (Va/Vb) against reference peptide GDDDDK-βNA, equal to the ratio of kcat/Km is 3.5.

Question: And the “enterokinase cleavage rate, phage ELISA (release of streptavidin-bound phage at 30 nM or 130 nM enterokinase)” value [6]?
Answer: The value was “the cleavage rate for ... 5-H11 (SEQ ID NO:194) was slower than for at least three of the other isolates, i.e., 5-A08 (SEQ ID NO:137), 5-B05 (SEQ ID NO:145) and 5-H04 (SEQ ID NO:188)”.

Question: What about the Cleavage Rate (DINDDRSLF test peptide) of the same protein?
Answer: Its Cleavage Rate is 1.43 nmol/min.

Question: And the “cleavage … HPLC” value (DINDDRSLF test peptide)?
Answer: The value was “all digestions were carried to completion (except for the negative control which was not cleaved at all)”.

Question: And the rate relative to standard substrate (fold of standard substrate) (DINDDRSLF test peptide)?
Answer: Its rate relative to standard substrate (fold of standard substrate) is 3.1.

Question: What about the ratio (Va/Vb) against reference peptide GDDDDK-βNA, equal to the ratio of kcat/Km (DINDDRSLF test peptide) of the same protein?
Answer: The ratio (Va/Vb) against reference peptide GDDDDK-βNA, equal to the ratio of kcat/Km was 30.

Question: And the Cleavage Rate (GNYTDRYFI test peptide)?
Answer: Its Cleavage Rate is 0.24 nmol/min.

Question: What about the “cleavage … HPLC” value (GNYTDRYFI test peptide) of the same protein?
Answer: Its value is “all digestions were carried to completion (except for the negative control which was not cleaved at all)”.

Question: And the rate relative to standard substrate (fold of standard substrate) (GNYTDRYFI test peptide)?
Answer: The rate relative to standard substrate (fold of standard substrate) was 0.5.

Question: What about the Cleavage Rate (NKAKDRMFI test peptide) of the same protein?
Answer: The Cleavage Rate was 0.26 nmol/min.

Question: What about the “cleavage … HPLC” value (NKAKDRMFI test peptide) of the same protein?
Answer: The value was “all digestions were carried to completion (except for the negative control which was not cleaved at all)”.

Question: And the rate relative to standard substrate (fold of standard substrate) (NKAKDRMFI test peptide)?
Answer: The rate relative to standard substrate (fold of standard substrate) was 0.6.
